From publication PMC10411625, “Rationally designed stapled peptides allosterically inhibit PTBP1–RNA-binding” (Chemical Science, 2023)

Assay: circular dichroism
Conditions: 20 mM sodium phosphate, 10 mM NaF; pH 8; 20 °C; 50 uM

Compound | helicity [%]
CC(=O)N[C@@H](CC(N)=O)C(=O)N[C@@H](CCC(N)=O)C(=O)N[C@@]1(C)CCCCCCCC[C@@](C)(C(=O)N[C@@H](C)C(=O)N[C@@H](CC(C)C)C(=O)N[C@@H](CCC(N)=O)C(=O)N[C@@H](C)C(=O)N[C@H](C(=O)N[C@@H](CC(N)=O)C(N)=O)C(C)C)NC(=O)[C@H](CCC(N)=O)NC(=O)[C@H](C)NC(=O)[C@H](CCCNC(=N)N)NC1=O | 92.3
CC(=O)N[C@@H](CC(N)=O)C(=O)N[C@@H](CCC(N)=O)C(=O)N[C@@]1(C)CCCC=CCCC[C@]2(CCCC=CCCC[C@](C)(C(=O)N[C@H](C(=O)N[C@@H](CC(=O)O)C(N)=O)C(C)C)NC(=O)[C@H](CCC(N)=O)NC(=O)[C@H](CC(C)C)NC(=O)[C@H](C)NC2=O)NC(=O)[C@H](CCC(N)=O)NC(=O)[C@H](C)NC(=O)[C@H](CCCNC(=N)N)NC1=O | 98.2
CC(=O)N[C@@H](CC(N)=O)C(=O)N[C@@H](CCC(N)=O)C(=O)N[C@@]1(C)CCCC=CCCC[C@]2(CCCC=CCCC[C@](C)(C(=O)N[C@H](C(=O)N[C@@H](CC(N)=O)C(N)=O)C(C)C)NC(=O)[C@H](CCC(N)=O)NC(=O)[C@H](CC(C)C)NC(=O)[C@H](C)NC2=O)NC(=O)[C@H](CCC(N)=O)NC(=O)[C@H](C)NC(=O)[C@H](CCNC(=N)N)NC1=O | 100
Ac-NQARAQAALQAVNR-NH2 | 20.2
CC(=O)N[C@@H](CC(N)=O)C(=O)N[C@@H](CCC(N)=O)C(=O)N[C@@]1(C)CCCC=CCCC[C@]2(CCCC=CCCC[C@](C)(C(=O)N[C@H](C(=O)N[C@@H](CC(N)=O)C(N)=O)C(C)C)NC(=O)[C@H](CCC(N)=O)NC(=O)[C@H](CC(C)C)NC(=O)[C@H](C)NC2=O)NC(=O)[C@H](CCC(N)=O)NC(=O)[C@H](C)NC(=O)[C@H](CCCNC(=N)N)NC1=O | 100
CC(=O)N[C@@H](CC(N)=O)C(=O)N[C@@H](CCC(N)=O)C(=O)N[C@@]1(C)CCCC=CCCC[C@]2(CCCC=CCCC[C@](C)(C(=O)N[C@H](C(=O)N[C@@H](CC(N)=O)C(N)=O)C(C)C)NC(=O)[C@H](CCC(N)=O)NC(=O)[C@H](CC(N)=O)NC(=O)[C@H](C)NC2=O)NC(=O)[C@H](CCC(N)=O)NC(=O)[C@H](C)NC(=O)[C@H](CCCNC(=N)N)NC1=O | 100
CC(=O)N[C@@H](CC(N)=O)C(=O)N[C@@H](CCC(N)=O)C(=O)N[C@@H](C)C(=O)N[C@@H](CCCNC(=N)N)C(=O)N[C@@H](C)C(=O)N[C@@]1(C)CCCCCCCC[C@@](C)(C(=O)N[C@@H](C)C(=O)N[C@H](C(=O)N[C@@H](CC(N)=O)C(N)=O)C(C)C)NC(=O)[C@H](CC(C)C)NC(=O)[C@H](C)NC(=O)[C@H](C)NC1=O | 77.3
CC(=O)N[C@@H](CC(N)=O)C(=O)N[C@@H](CCC(N)=O)C(=O)N[C@@H](C)C(=O)N[C@@H](CCCNC(=N)N)C(=O)N[C@@H](C)C(=O)N[C@@H](CCC(N)=O)C(=O)N[C@@]1(C)CCCCCCCC[C@@](C)(C(=O)N[C@H](C(=O)N[C@@H](CC(N)=O)C(N)=O)C(C)C)NC(=O)[C@H](CCC(N)=O)NC(=O)[C@H](CC(C)C)NC(=O)[C@H](C)NC1=O | 57.8
CC(=O)N[C@H](C(=O)N[C@@H](CCC(N)=O)C(=O)N[C@@]1(C)CCCC=CCCC[C@]2(CCCC=CCCC[C@](C)(C(=O)N[C@H](C(=O)N[C@@H](CC(N)=O)C(N)=O)C(C)C)NC(=O)[C@H](CCC(N)=O)NC(=O)[C@H](CC(C)C)NC(=O)[C@H](C)NC2=O)NC(=O)[C@H](CCC(N)=O)NC(=O)[C@H](C)NC(=O)[C@H](CCCNC(=N)N)NC1=O)C(C)C | 100
